# Laboratory results: US20060116325A1, “Methods and compositions for inhibiting hiv-coreceptor interactions” (priority 2001, published 2006)
# Entries after “also recorded” stand apart in the source; their conditions may differ.
# Experiments:
# [1] = biological target: T1, CXCR4 (Homo sapiens, UniProt P61073); test: Competition with 125I-SDF-1α binding to CEMx174 cells; parameters: host or cells: CEMx174 (174xCEM); conditions: room temperature, 0.1% sodium azide, FIG. 7B, 7C
# Experimental: FIGS. 7A through 7C depicts the inhibition of chemokine receptor ligand binding by peptide pre-treatment. FIG. 7A. Effect of pre-treatment with peptides 15K and 15D on the binding of MIP-1β to SupT1/CCR5 cells; FIG. 7B. Effect of pre-treatment with peptides 15K and 1SD on the binding of SDF-1α to CEMx174 cells; and FIG. 7C. Effect of pre-treatment with 15K and control peptide 15GIG on the binding of SDF-1α to CEmx174 cells. Binding studies were performed as described in Materials and Methods.
# Binding assays were performed with HEK-CCR5 or HEK CXCR4 in triplicate by adding unlabeled competitor (anti-coreceptor binding peptide or control chemokine) and radiolabeled chemokine, 0.2 ng/ml (^125I-MIP-1β or SDF-1α, specific activity 2000 Ci/mmol, NEN Life Science Products) to a cell suspension (4×10^5 cells in 200 μl) in RPMI 1640 supplemented with 1% bovine serum albumin and 25 mM HEPES pH 8.0 (binding medium). Cells were then incubated at 22° C. for 40 min with continuous rotation. After incubation cells were transferred to the tubes containing 800 μl of 10% sucrose in PBS and harvested by centrifugation. The supernatant was aspirated and the cell-associated radioactivity was measured using a 1272 Wallac gamma counter. Binding assays were performed with the 174xCEM and Sup-T1 cells expressing CCR5 in duplicates by adding unlabeled competitor (peptide or control chemokine) and radiolabeled chemokine, 0.2 ng/ml (^125I-MIP-1β or ^125I-SDF-1α, specific activity 2000 Ci/mmol, NEN life Science Products) to 300 μl cell suspension (4×10^6 cells/ml) in RPMI 1640 supplemented with 1% bovine serum albumin, 0.1% sodium azide and 25 mM HEPES pH 8.0 (binding medium). Cells were then incubated at 22° C. for 30 min with continuous rotation. After incubation cells were transferred to the tubes containing 800 μl of 10% sucrose in PBS and harvested by centrifugation, the supematant was aspirated and the cell-associated radioactivity was measured using a 1272 Wallac gamma counter. The data were analyzed by nonlinear regression using the computer program GraphPad Prizm 3.0. […]
# [2] = biological target: T1, CXCR4; test: Ca2+ mobilization in THP-1 cells in response to SDF-1α (fura-2); assay type: cell-based; conditions: peptide 500 μM preincubated, SDF-1α 100 ng/ml, FIG. 6
# Experimental: FIGS. 6A through 6D depict the effect of peptide pre-treatment on the mobilization of intracellular Ca^2+ in THP-1 cells in response to SDF-1α. Cells loaded with fura-2 were preincubated with peptide 15K (FIG. 6C), 15D (FIG. 6B) and 15CW (FIG. 6D) at a final concentration of 500 μM for 3 min prior to stimulation with SDF-1α (100 ng/ml).
# THP-1 cells (12×10^6/ml in RPMI 1640 containing 10% FSB) were loaded in the presence of 5 μM fura-2 AM (Molecular Probes, Eugene, Oreg.) at 22° C. for 30 min in the dark. Subsequently, cells were washed three times and resuspended (10^6 cells/ml) in the buffer containing 138 mM sodium chloride, 6 mM potassium chloride, 1 mM calcium chloride, 1 mM magnesium chloride, 10 mM HEPES, pH 7.4,5 mM glucose, and 0.1% bovine serum albumin. 1.93 ml of loaded cells was transferred into a quartz cuvette. 50 μl of a peptide stock solution (2×10^−2 M) was added to the cells, and after 3 min of incubation 20 μl of human SDF-1α (10 μg/ml, PeproTech) was added to a stirred cuvette. The measurements were performed using luminescence spectrophotometer LS50 B (Perkin-Elmer). Ca^2+ mobilization in the cells in response to SDF-1α was measured by analysis of the ratio of fluorescence emitted at 510 nm after sequential excitation at 340 and 380 nm.
# The increase of intracellular Ca^2+ concentration mediated by a chemokine receptor in response to a cognate chemokine is a reliable assay for measurement of chemokine agonist activity. The human monocytic cell line THP-1 expresses a high level of CXCR4 and responds well to SDF-1α stimulation (FIG. 6A), so these cells were used to determine whether peptides 15D and 15K could block the activation of CXCR4.
# [3] = test system: HIV-1IIIB; test: HIV-1IIIB infection of PBMC, p24 ELISA; assay type: cell-based; conditions: peptide 1 hr before HIV-1IIIB, p24 after 48 hr; FIG. 4
# Experimental: Peripheral blood mononuclear cells were treated with designated concentrations of peptide for a period of 1 hr prior to addition of HIV-1IIIB. After 2 hr, cells were washed, and viral replication was determined after 48 hr by analysis of p24 levels. Results are representative of 4 independent experiments.
# PBMCs were obtained from whole blood of normal donors and isolated by Ficoll-Paque Plus (Pharmacia Biotech, Piscataway, N.J.) density gradient centrifugation, and plated at a cell density of 2×10^6 cells/ml. Monocyte-derived macrophages (MDM) were generated from adherent human peripheral blood mononuclear cells by culture for 7 days with M-CSF (100 ng/ml). Cultures were maintained in RPMI-1640 medium (Life Technologies, Rockville, Md.) supplemented with 10% heat-inactivated endotoxin-free FCS (Hyclone, Logan, Utah), 10 μg/ml gentamicin, and 1 mM glutamine. Cells were treated with designated concentrations of the exemplary peptides 15K or 15D, and after 1 hr cells were infected with HIV-1IIIB (T cell tropic) or HIV-1JRFL (monocyte tropic) at an multiplicity of infection (MOI) of 0.1. After 2 hr, cells were washed, and cultured for additional 48-72 hr, followed by analysis of HIV replication as determined by quantification of accumulated p24 in the supernatant. The production of p24 was determined by conventional sandwich ELISA, using ELISA plates pre-coated with capture anti-p24 antibodies provided by the AIDS Vaccine Program (SAIC Frederick, NCI-FCRDC, Frederick, Md.). The captured p24 antigen was detected using rabbit anti-HIV-1 anti-p24 antibody, and a secondary goat anti-rabbit IgG (peroxidase-labeled) antibody. The captured p24 protein was detected using a 3,3′,5,5′-tetramethylbenzidine and hydrogen peroxide detection system (KPL Laboratories, Gaithersburg, Md.). The reaction was read spectrophotometrically at 450 nm. No cytotoxicity was detectable following treatment of PBMC with the peptides even at a concentration of 100 μg/ml.
# In view of the foregoing binding inhibition studies, and considering the homology between the 15K and 15D peptides and the CXCR4 ligand SDF-1α, it was further undertaken to determine the capacity of the synthetic peptides to inhibit CXCR4 co-receptor function. In particular, experiments were carried out to assess the ability of 15K or 15D to alter the infection of PBMCs with the T cell-tropic […] strain. […] Significant inhibition of HIV-1 infection was detected with concentrations of peptides as low as 10 ng/ml.
# [4] = biological target: T1, CXCR4; test: Binding of anti-CXCR4 antibody 12G5 to CEMx174 cells (flow cytometry); parameters: host or cells: CEMx174 (174xCEM); conditions: CEMx174 cells, preincubation 60 min 22° C.; FIG. 5
# Experimental: FIG. 5A. Dose dependent effect of peptide 15K in comparison with SDF-1α. FIG. 5B. The comparison of the effects of 15K and 15D. FIG. 5C. The comparison of the effects of 15K and 15KS. Cells were preincubated at 22° C. with peptides at designated concentrations of SDF-1α for 60 min. Then cells were incubated with FITC-labeled anti-human CXCR4 monoclonal antibodies 12G5 for 40 min at 22° C. and washed with FACS buffer prior to flow cytometry.
# CEMx174 cells were pelleted and resuspended at 10^6 cells/ml in PBS containing 1% BSA and 0.1% sodium azide (FACS buffer). Cells were then preincubated with designated concentrations of peptides or SDF-1-α (1 μg/ml) at 22° C. for 60 min. FITC-labeled anti-human CXCR4 antibody (clone 12G5, BD PharMingen, San Diego, Calif.) was added to the cells per the manufactures instructions and further incubated at 22° C. for 40 minutes. Cells were extensively washed with FACS buffer and analyzed using a FACS Calibur flowcytometer (Becton Dickinson). HEK/CCR5 cells were suspended in Dulbecco's PBS containing 1% FCS and 0.05% NaN3 (10^4 cells in 100 μl) and incubated with or without 5 μg of MIP-1β (PeproTech, Rocky Hill, N.J.), 0.1 mM peptide 15D or 15K for 45 min at 22° C. Cells were then treated with FITC-conjugated anti-human CCR5 antibody (2D7; BD PharMingen, San Diego, Calif.), and incubated for 30 min at 22° C. Cells were washed twice, and analyzed using a FACScan flow cytometer (Becton Dickinson Immunocytometry Systems, San Jose, Calif.).
# To determine if peptides 15D and 15K interact directly with chemokine receptors the effect of these and control peptides on the binding of anti-chemokine receptor antibodies to CXCR4 and CCR5 was studied. The monoclonal antibody 12G5 recognizes a conformational extracellular epitope on CXCR4. This antibody blocks the infectivity of some X4 strains of HIV-1 and HIV-2 (Endres et al., Cell 87:745-756, 1996; Hoxie et al., J. Reprod. Immunol. 41:197-211(1998); McKnight et al., J. Virol. 74:1692-1696(1997), 19, 26). […] Further, the binding of 12G5 to CXCR4 receptor-expressing cells is prevented by anti-HIV compounds. […] 73:2752-2761, 1999. To determine the importance of the particular amino acid sequence of the inhibitory activity of the peptides. The effects of peptide 15K and the corresponding scrambled peptide 15KS on binding of 12G5 to CXCR4 was compared. […] Apparently there is a direct correlation between the ability of 15K to inhibit the anti-CXCR4 antibody binding and its ability to inhibit HIV-1 infectivity since the scrambled peptide 15KS with the same amino acid comparison has reduced ability to manifest both these activities.
# T1 sequence (P61073 whole entry): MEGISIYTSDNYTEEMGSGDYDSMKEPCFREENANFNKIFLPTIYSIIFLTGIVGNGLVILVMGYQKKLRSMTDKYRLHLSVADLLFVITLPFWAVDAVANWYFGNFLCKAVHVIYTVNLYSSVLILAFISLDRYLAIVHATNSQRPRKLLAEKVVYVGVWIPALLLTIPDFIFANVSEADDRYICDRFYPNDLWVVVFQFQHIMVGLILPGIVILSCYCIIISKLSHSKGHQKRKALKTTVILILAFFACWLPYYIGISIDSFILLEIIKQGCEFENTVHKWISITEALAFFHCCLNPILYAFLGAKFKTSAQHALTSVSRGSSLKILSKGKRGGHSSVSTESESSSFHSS
substance,measurement,setting,value
"G I G D P V T C L K S G A I A (GIGDPVTCLKSGAIA) [Peptide 15GIG, reference compound]",inhibition of SDF-1α binding to CXCR4,[1],significantly lower competing activity
"I R K A H C W I D R A D N N S [Peptide 15CW, reference compound]",inhibition of Ca2+ mobilization in response to SDF-1α,[2],less effective
"K I N S W R A D N I H C K A R (KINSWRADNIHCKAR) [Peptide 15KS, reference compound]",inhibition of T cell-tropic HIV-1 infection of PBMCs (p24),[3],significantly less inhibition
same,inhibition of 12G5 antibody binding to CXCR4,[4],significantly less inhibitory activity; also recorded: a low level of inhibitory activity
